Experimental data reported in patent US20240084003A1 (SIMCERE ZAIMING PHARMACEUTICAL, published 2024).

T1: monkey CD22 on HEK293T-monkey CD22 cells (monkey)
T1 construct: full-length entry expressed on stably transfected HEK293T cells
T1 chain: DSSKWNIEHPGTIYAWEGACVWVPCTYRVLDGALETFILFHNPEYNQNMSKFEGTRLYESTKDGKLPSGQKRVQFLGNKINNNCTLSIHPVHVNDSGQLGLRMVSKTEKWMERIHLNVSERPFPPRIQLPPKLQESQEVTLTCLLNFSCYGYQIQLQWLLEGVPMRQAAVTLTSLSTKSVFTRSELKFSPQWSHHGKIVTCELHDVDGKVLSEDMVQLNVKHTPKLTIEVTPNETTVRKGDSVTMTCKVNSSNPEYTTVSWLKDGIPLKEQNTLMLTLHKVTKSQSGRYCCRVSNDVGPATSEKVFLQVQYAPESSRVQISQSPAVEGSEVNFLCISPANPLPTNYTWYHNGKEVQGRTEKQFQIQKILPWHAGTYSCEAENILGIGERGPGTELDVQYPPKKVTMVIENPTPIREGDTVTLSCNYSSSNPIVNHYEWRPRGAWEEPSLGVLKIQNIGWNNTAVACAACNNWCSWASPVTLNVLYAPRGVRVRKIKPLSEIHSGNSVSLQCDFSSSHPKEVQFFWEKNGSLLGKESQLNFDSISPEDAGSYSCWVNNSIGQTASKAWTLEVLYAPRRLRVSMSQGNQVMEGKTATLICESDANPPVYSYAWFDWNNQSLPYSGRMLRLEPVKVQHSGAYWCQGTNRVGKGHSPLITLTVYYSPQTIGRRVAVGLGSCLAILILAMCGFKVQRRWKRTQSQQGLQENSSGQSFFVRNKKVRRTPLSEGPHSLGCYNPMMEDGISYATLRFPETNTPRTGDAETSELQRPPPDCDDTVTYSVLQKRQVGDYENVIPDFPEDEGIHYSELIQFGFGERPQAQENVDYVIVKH


Legend:
[1] = biological target: T1, monkey CD22 on HEK293T-monkey CD22 cells; assay: FACS, HEK293T-monkey CD22 cells, EC50 column
Procedure: (§1) For suspension cell Raji, the medium supernatant was directly centrifuged and discarded, and the cell pellet was washed 2 times with PBS. After counting the cells in the previous step, the cell pellet was resuspended with [PBS+2% (w/w) BSA] blocking solution to 2×10⁶ cells/ml, and added to a 96-well FACS reaction plate at 50 μl/well, and then the chimeric antibody test sample was added at 50 μl/well, and incubated on ice for 2 hours. The mixture was centrifuged and washed 3 times with PBS buffer, Alexa Flour 488-labeled secondary antibody (purchased from Invitrogen, catalog number: A-11013) was added at 50 μl/well, and incubated on ice for 1 hour. The obtained mixture was centrifuged and washed 5 times with PBS, and FACS (FACS Canto™, purchased from BD Company) was used for detection and result analysis. Data analysis was performed by software (CellQuest) to obtain the mean fluorescence density (MFI)of the cells. And then software (GraphPad Prism8) was used for analysis, data fitting, and EC50 value calculation. […] The same method was used to detect the binding of the chimeric antibodies to endogenous CD22-negative cell MoLT4 cells (purchased from ATCC, CRL-1582) and CHO-K1 cells.
(§2) HEK293T-monkey CD22 cells were subjected to FACS detection and data analysis according to the method in Example 5.2.

[2] = biological target: T1, monkey CD22 on HEK293T-monkey CD22 cells; assay: FACS, HEK293T-monkey CD22 cells
Procedure: as §1, §2

Row | Binder | binding result [1] | Maximum mean fluorescence intensity [2] [MFI]
1 | F1.257.3 (antibody, human IgG1, kappa, V domains shown, human-murine chimeric IgG1 kappa; VL name legible) VH: QVQLQQSGPELARPGASVKLSCKASGYTFTSYGISWVKQRTGQDLEWIGEIYPKLGTTYYNEKFKDKATLTTDRSSSTAYMALRSLTSEDSAVYFCACPHYYATRGGDYWGQGTTLTVSS VL: EIVLTQSPATLSVTPGDSVTFSCRASQSISNHLHWYQQKSHESPRLLIRYASQSISGIPSRFSGSGSGTDFTLSLSSVETEDFGVYFCQQSHSWPYTFGGGTKLEIAR | no binding | –
2 | F2.343.16 (antibody, human IgG1, lambda, V domains shown, human-murine chimeric IgG1 lambda; VL name legible) VH: QVQLKQSGPGLVQPSQSLSITCTVSGFSLTGYGVQWVRQSPGKGLEWLGVIWGGGGTDYNAAFISRLNIIKDNSKSQVFFKMNSLQADDTAIYYCARYSKYGHFDVWGTGTAVTVSS VL: QAVVTQESALTTSPGETVTLTCRSSTGAVTTSNYANWVQEKPDHLFTGLIGGTYNRVPGVPARFSGSLIGDKAALTITGAQTEDEAIYFCALWYSNHFWVFGGGTKLTVLG | no binding | 83
3 | F1.60.9 (antibody, human IgG1, kappa, V domains shown, human-murine chimeric IgG1 kappa) VH: QVQLKESGPGLVAPSQSLSITCTVSGLSLNNYGVSWVRQPPGKGLEWLGVIWGDGSTNYHSALISRLSISKDNSKSQVFLKLNSLHTDDTATYYCAINWGDYWGQGTTLIVSS VL: DIKMTQSPSSMNASLGERVTITCKASQDINSYLSWFQQKPGKSPKILIYRANRLIDGVPSRFSGSGSGQDYSLTISSLEYEDMGIYYCLQYGVFPLTFGAGTKLELKR | no binding | –
4 | F2.70.2 (antibody, human IgG1, lambda, V domains shown, human-murine chimeric IgG1 lambda) VH: EVQLVESGGGLVKPGGSLKLSCAASGFTFSDYGMNWFRQAPEKGLEWVAYISRGSHTIYYADTVKGRFTISRDNAKNTLFLQMTSLRSNDTAMYYCVRMAGYYAMDYWGQGTSVTVSS VL: QLVLTQSSSASFSLGASAKLTCTLSSQHSSYIIEWYQQQPLKPPKYVMELKKDGSHSTGDGIPDRFSGSSSGADRYLSISNIQPEDEAIYICGVGDTIKEQFVYVFGGGTKVTVLG | no binding | 409
5 | F2.180.16 (antibody, human IgG1, lambda, V domains shown, human-murine chimeric IgG1 lambda) VH: EVKLVESGGGLVLPGGSLKISCAASGFTFSDYYMYWIRQTPDKRLEWVAYISNTGYSTFYPDSVKGRFTVSRDNAKNTLYLQMSRLQSEDTAMYYCARHGILYAMDYWGQGTSVTVSS VL: QPVLTQSSSASFSLGASAKLTCTLSSQYSTYTIGWYQQQPLKPPKYVMELKHDGSRHTGDGIPDRFSGSSSGADRYLSISNIQPEDEATYICGVGDTIKEQFMYVFGGGTKVTVLG | no binding | 69
6 | F2.104.10 (antibody, human IgG1, lambda, V domains shown, human-murine chimeric IgG1 lambda) VH: EVQLVESGGGFVKPGGSLKLSCAASGFTFSDYGMNWFRQAPEKGLEWVAYISRGSHTIYYADTVKGRFTISRDNAENTLFLQMTSLRSNDTAMYYCVRMAGYYAMDYWGQGTSLTVSS VL: QLVLTQSSSASFSLGASAKLTCTLSSQHSSYIIEWYQQQPLKPPKYVMEVKKDGSHSTGDGIPDRFSGSSSGADRYLSISNIQSEDEAIYICGVGDTIKEQFVYVFGGGTKVTVLG | no binding | 251
7 | F1.245.2 (antibody, human IgG1, kappa, V domains shown, human-murine chimeric IgG1 kappa) VH: EVQLQQSGAELVKPGASVKLSCTGSGFNIKDYYIHWVKQRTEQGLEWMGRIDPEDGETEYAPKFQDEATITSDTSSNTAYLQLSSLTYEDTAVYYCAREAAGYFYRGSSYGYFDVWGTGTTVTVSS VL: DFQMTQTTSFLSASLGDRVTISCSASQDISNYLNWYQQKPDGTVKLLIYYTSSLHSGVPSRFSGSGSGTDYSLTISNLEPEDIATYYCQQYSMLPYTFGGGTKLEMER | no binding | –
